Test results taken from US10925971B2, “Methods of treating PRLR positive breast cancer” (Regeneron Pharmaceuticals, Inc., priority 2016, dated 2021).
Positions count from the first letter of the chain named.

B1: H1H6762P: fully human anti-PRLR antibody, human IgG1 Fc; HCVR/LCVR SEQ ID NOs 2/10 (antibody, V domains shown)
VH: QVQLVESGGGVVQPGRSLRLSCAASGFTFSHYGMVWVRQPPGKGLEWVALISFDGTTKYYADSVKGRFTISRDNSKNTLYLQMNSLRAEDTAVYFCVGAIAAAAFDLWGRGTLVTVSS
VL: EIVMTQSPATLSVSPGERATLSCRASQSVSSDLAWYQQKPGQAPRLLIYSASARATGIPARFTGSGSGTDFTLTISSLQSEDFAVYYCQQYNNWPMYTFGQGTKLEIK
B2: H1H6781P: fully human anti-PRLR antibody, human IgG1 Fc; HCVR/LCVR SEQ ID NOs 50/58 (antibody, V domains shown)
VH: EVQLVESGGDLVQPGESLRLSCTASGFTFNSYEMNWVRQAPGKGLEWVSYISSSGGTKYYVDSVKGRFTISRDNAKKSLYLQMNSLRADDTALYYCARLNGVDVFDIWGQGTMVTVSS
VL: DIQMTQSPSSLSASVGDRVTITCRASQDIFNYLAWFQQKPGKVPELLISAASTLQSGVPSRFSGSGSGTYFTLTISSLQPEDIATYYCQRYNSAPLTFGGGTKVEIK
B3: H1H6785P: fully human anti-PRLR antibody, human IgG1 Fc; HCVR/LCVR SEQ ID NOs 98/106 (antibody, V domains shown)
VH: EVQLVESGGGLVQPGGSLRLSCAASGFTFSSYEMNWVRQAPGKGLEWISYISSRGGTIYYADSIKGRFTIYRDNARNSLYLQMNSLRAEDTAIYYCARLSGVDIFDIWGQGTMVTVSS
VL: B2 VL with D28G, F30S, F36Y, E45K, S49Y, A50F, S65G, Y70D, I83V
B4: H1H6976N: anti-PRLR antibody, human IgG1 Fc form of H2M6976N of Table 1; HCVR/LCVR SEQ ID NOs 386/394 (antibody, V domains shown)
VH: EVQLLESGGGFVQPGGSLRLSCAASGFTFSSYAMSWVRQAPGKGLEWVSIISSNGRYTYYADSVKGRFTISRDNSKNTLYLQMNSLRAEDTAVYYCATVTGDWFDPWGQGTLVTVSS
VL: DIQLTQSPSFLSASVGDRVTITCWASQDIDISLAWYQQKPGKAPKLLIYAASTLQSGVPSKFSGSGSGTDFTLTISSLQPEDFSTYYCQQLNSYPITFGQGTRLDIK
modifications: human IgG1 Fc

These molecules were tested against T1, mouse PRLR on HEK293/mPRLR cells (Mus musculus, UniProt Q08501) (assay: FACS cell surface binding). Details: not given.
T1 construct: HA; expressed in transfected cells; host or cells: HEK293
T1 sequence (Q08501 20-608): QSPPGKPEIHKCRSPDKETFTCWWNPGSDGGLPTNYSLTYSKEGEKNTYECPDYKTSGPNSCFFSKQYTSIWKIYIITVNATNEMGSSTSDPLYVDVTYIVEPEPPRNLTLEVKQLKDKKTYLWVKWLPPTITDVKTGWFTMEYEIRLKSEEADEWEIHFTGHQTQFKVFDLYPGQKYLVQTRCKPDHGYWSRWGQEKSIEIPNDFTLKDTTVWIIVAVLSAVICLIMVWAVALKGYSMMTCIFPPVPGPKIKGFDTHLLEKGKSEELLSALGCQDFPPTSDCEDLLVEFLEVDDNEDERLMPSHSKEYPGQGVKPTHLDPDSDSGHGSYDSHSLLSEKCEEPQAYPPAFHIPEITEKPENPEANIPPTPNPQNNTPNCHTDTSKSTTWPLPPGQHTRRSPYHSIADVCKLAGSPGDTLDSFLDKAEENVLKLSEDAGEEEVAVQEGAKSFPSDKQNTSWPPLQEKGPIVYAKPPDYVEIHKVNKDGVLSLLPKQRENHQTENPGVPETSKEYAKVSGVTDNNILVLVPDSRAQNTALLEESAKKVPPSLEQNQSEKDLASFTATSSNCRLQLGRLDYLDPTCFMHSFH
Experimental: (§1) The ability of anti-PRLR antibodies to selectively bind PRLR expressing cell lines was next determined. Human, monkey Macaca fascicularis, and mouse PRLR constructs with an HA tag were stably introduced into HEK293 cells via Lipofectamine 2000-mediated transfection methodology. Transfectants (HEK293/hPRLR, HEK293/mfPRLR and HEK293/mPRLR) were selected for at least 2 weeks in complete growth media plus G418.
(§2) Cell surface expression of PRLR on 293/hPRLR cells was assessed via FACS analysis. Briefly, 1×10^5 cells were incubated with 10 μg/ml of Control antibody I, or an isotype control for 30 min on ice in antibody dilution buffer. Following two washes with antibody dilution buffer, cells were incubated with 10 μg/ml of PE conjugated anti-human secondary antibodies for 30 min on ice. Following two additional washes, samples were run on a Hypercyt® cytometer and analyzed in ForeCyt™ (IntelliCyt, Albuquerque, N. Mex.). The mean fluorescence intensities (MFI) were expressed as fold change above isotype control levels (background). FACS binding confirmed that Control I selectively bound to 293/hPRLR expressing cells with MFIs that were 30 fold above background (isotype ctrl) levels and less than 2 fold binding on parental cells.
(§3) Next, the anti-PRLR antibodies were tested via FACS for selective binding to the engineered overexpressing PRLR HEK293 cell lines, as well as to non-expressing HEK293 cells and a native PRLR expressing cell line (T47D).
In the case of B1, the “FACS Cell Binding” value is reported as 2 Fold Above Background.
For B2, the “FACS Cell Binding” value was 1 Fold Above Background.
In the case of B3, the “FACS Cell Binding” value is reported as 2 Fold Above Background.
For B4, the “FACS Cell Binding” value was 1 Fold Above Background.

What follows are molecules tested against T2, monkey PRLR on HEK293/mfPRLR cells (Macaca fascicularis, UniProt A0A2K5WXK1) (assay: FACS cell surface binding). Details: not given.
T2 construct: HA; expressed in transfected cells; host or cells: HEK293
T2 sequence (A0A2K5WXK1 25-619): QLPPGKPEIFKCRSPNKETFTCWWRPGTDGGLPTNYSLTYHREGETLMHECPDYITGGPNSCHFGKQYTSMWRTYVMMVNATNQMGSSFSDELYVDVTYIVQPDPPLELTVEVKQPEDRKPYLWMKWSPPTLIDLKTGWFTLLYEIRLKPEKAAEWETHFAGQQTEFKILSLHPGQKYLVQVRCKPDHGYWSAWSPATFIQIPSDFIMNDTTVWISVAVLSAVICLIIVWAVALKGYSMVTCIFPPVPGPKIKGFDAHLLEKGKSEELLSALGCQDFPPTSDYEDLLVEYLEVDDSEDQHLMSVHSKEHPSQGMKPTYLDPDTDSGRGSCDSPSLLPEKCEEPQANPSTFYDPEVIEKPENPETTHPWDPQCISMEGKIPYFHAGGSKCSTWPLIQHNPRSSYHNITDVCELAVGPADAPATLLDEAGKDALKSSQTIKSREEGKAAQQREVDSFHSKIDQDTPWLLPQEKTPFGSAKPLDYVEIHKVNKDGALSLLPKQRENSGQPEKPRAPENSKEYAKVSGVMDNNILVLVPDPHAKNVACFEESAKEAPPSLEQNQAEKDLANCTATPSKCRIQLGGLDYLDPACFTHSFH
Experimental: as §1, §2, §3
In the case of B1, the “FACS Cell Binding” value is reported as 26 Fold Above Background.
In the case of B2, the “FACS Cell Binding” value is reported as 26 Fold Above Background.
B3 was tested, and the “FACS Cell Binding” value was 26 Fold Above Background.
For B4, the “FACS Cell Binding” value was 29 Fold Above Background.

What follows are molecules tested against T3, human PRLR on HEK293/hPRLR cells (Homo sapiens, UniProt P16471) (assay: FACS cell surface binding). Details: not given.
T3 construct: HA; expressed in transfected cells; host or cells: HEK293
T3 sequence (P16471 25-622): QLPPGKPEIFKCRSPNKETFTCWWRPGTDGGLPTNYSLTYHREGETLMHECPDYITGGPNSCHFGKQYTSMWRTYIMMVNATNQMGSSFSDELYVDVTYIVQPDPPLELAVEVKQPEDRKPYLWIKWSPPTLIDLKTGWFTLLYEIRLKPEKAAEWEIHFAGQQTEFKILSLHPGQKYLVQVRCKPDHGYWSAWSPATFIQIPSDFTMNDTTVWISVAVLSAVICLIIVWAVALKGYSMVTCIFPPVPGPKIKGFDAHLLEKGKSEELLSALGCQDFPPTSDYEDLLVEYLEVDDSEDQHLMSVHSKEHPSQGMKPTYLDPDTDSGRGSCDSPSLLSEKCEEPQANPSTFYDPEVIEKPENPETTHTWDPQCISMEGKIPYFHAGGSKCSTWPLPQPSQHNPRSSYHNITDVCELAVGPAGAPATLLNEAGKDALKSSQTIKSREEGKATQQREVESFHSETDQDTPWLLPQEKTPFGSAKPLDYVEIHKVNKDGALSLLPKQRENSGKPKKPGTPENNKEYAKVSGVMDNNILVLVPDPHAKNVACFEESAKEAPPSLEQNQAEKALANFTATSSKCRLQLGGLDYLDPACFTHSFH
Experimental: as §1, §2, §3
In the case of B1, the “FACS Cell Binding” value is reported as 36 Fold Above Background.
B2 was tested, and the “FACS Cell Binding” value was 37 Fold Above Background.
In the case of B3, the “FACS Cell Binding” value is reported as 37 Fold Above Background.
For B4, the “FACS Cell Binding” value was 8 Fold Above Background.

What follows are molecules tested on HEK293 parental cells (assay: FACS cell surface binding). Details: not given.
Set-up: species or system human
Experimental: as §1, §2, §3
In the case of B1, the “FACS Cell Binding” value is reported as 1 Fold Above Background.
For B2, the “FACS Cell Binding” value was 1 Fold Above Background.
B3 was tested, and the “FACS Cell Binding” value was 1 Fold Above Background.
In the case of B4, the “FACS Cell Binding” value is reported as 1 Fold Above Background.

What follows are molecules tested against T4, native PRLR expressing T47D cells (Homo sapiens, UniProt P16471) (assay: FACS cell surface binding). Details: not given.
T4 construct: a native PRLR expressing cell line (T47D); endogenous in cells; host or cells: T47D
T4 sequence (P16471 25-622): T3 sequence (P16471 25-622)
Experimental: as §2, §3
With B1 the “FACS Cell Binding” value was 38 Fold Above Background.
In the case of B2, the “FACS Cell Binding” value is reported as 40 Fold Above Background.
For B3, the “FACS Cell Binding” value was 40 Fold Above Background.
With B4 the “FACS Cell Binding” value was 37 Fold Above Background.

These molecules were tested on Macaca fascicularis PRLR (mfPRLR.mmh; SEQ ID NO:403) (assay: Surface plasmon resonance (Biacore T200), antibody-capture format). Details: 25° C., analyte mfPRLR.mmh.
Chain of Macaca fascicularis PRLR (mfPRLR.mmh; SEQ ID NO:403) (as listed by the source): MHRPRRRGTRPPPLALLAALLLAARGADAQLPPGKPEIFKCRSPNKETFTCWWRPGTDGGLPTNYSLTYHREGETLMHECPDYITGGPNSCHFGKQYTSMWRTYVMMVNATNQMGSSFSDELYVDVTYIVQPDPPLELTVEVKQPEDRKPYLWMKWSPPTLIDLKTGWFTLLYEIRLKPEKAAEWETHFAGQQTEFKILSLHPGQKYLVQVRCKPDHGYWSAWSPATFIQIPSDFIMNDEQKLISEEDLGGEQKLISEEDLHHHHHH
Assay type: binding
Experimental: (§4) Antibodies, expressed as human IgG1 Fc (i.e., “H1H” designations), were captured onto an anti-human Fc sensor surface (mAb-capture format), and soluble monomeric (hPRLR.mmh; SEQ ID NO:401, or Macaca fascicularis (mf) PRLR.mmh; SEQ ID NO:403) or dimeric (hPRLR.mFc; SEQ ID NO:402) PRLR protein was injected over the sensor surface. Measurements were conducted on a T200 Biacore instrument. Kinetic association (ka) and dissociation (kd) rate constants were determined by processing and fitting the data to a 1:1 binding model using Scrubber 2.0 curve fitting software.
With B1 the ka was 408000 M/s and the kd was 0.000208 s⁻¹.
B2 showed a ka of 143000 M/s and a kd of 0.000141 s⁻¹.
For B3, the ka was 227000 M/s and the kd was 0.000167 s⁻¹.
B4 showed a ka of 466000 M/s and a kd of 0.000814 s⁻¹.

Same assay, conditions: 37° C., analyte mfPRLR.mmh
B1 was tested, and the ka was 679000 M/s and the kd was 0.000558 s⁻¹.
Molecule B2 has a ka of 247000 M/s and a kd of 0.000267 s⁻¹.
With B3 the ka was 297000 M/s and the kd was 0.00045 s⁻¹.
Work on B4 yielded a ka of 603000 M/s and a kd of 0.00316 s⁻¹.

Each molecule was assayed against T5, monomeric human PRLR (hPRLR.mmh; SEQ ID NO:401) (Homo sapiens, UniProt P16471) in the same assay as above. Details: 25° C., analyte hPRLR.mmh.
T5 construct: soluble monomeric (hPRLR.mmh); mmh (myc-myc-hexahistidine) (C)
T5 sequence (P16471 with tags, fused parts or gaps): as the sequence (as listed by the source) above, with V105I, T139A, M154I, T187I, I236T counted along it
Assay type: binding
Experimental: as §4
In the case of B1, the ka is reported as 692000 M/s and the kd is reported as 0.000179 s⁻¹.
Work on B2 yielded a ka of 208000 M/s and a kd of 0.000127 s⁻¹.
In the case of B3, the ka is reported as 301000 M/s and the kd is reported as 0.000171 s⁻¹.
In the case of B4, the ka is reported as 544000 M/s and the kd is reported as 0.000864 s⁻¹.

Same assay, conditions: 37° C., analyte hPRLR.mmh
Molecule B1 has a ka of 948000 M/s and a kd of 0.000455 s⁻¹.
B2 showed a ka of 339000 M/s and a kd of 0.000309 s⁻¹.
B3 showed a ka of 426000 M/s and a kd of 0.000484 s⁻¹.
Work on B4 yielded a ka of 777000 M/s and a kd of 0.00314 s⁻¹.

Each molecule was assayed against T6, dimeric human PRLR (hPRLR.mFc; SEQ ID NO:402) (Homo sapiens, UniProt P16471) in the same assay as above. Details: 25° C., analyte hPRLR.mFc.
T6 construct: dimeric (hPRLR.mFc)
T6 sequence (P16471 with tags, fused parts or gaps): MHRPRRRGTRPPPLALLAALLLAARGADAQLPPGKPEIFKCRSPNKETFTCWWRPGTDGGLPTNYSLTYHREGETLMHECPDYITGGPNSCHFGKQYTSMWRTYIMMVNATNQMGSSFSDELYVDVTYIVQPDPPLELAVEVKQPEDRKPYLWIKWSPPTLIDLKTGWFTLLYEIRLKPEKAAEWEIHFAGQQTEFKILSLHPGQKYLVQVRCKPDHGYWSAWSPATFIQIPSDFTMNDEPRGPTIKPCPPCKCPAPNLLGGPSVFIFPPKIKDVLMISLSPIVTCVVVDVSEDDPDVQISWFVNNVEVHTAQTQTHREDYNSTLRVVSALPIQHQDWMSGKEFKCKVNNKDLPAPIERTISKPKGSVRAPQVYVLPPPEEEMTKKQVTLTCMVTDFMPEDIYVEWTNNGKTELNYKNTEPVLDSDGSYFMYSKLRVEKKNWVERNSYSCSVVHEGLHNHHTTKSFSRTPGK
Assay type: binding
Experimental: as §4
Work on B1 yielded a ka of 651000 M/s and a kd of 6.45e-05 s⁻¹.
With B2 the ka was 257000 M/s and the kd was 6.05e-05 s⁻¹.
With B3 the ka was 263000 M/s and the kd was 6.07e-05 s⁻¹.
For B4, the ka was 1.12e+06 M/s and the kd was 0.000101 s⁻¹.

Same assay, conditions: 37° C., analyte hPRLR.mFc
B1 showed a ka of 801000 M/s and a kd of 0.000103 s⁻¹.
B2 gave a ka of 436000 M/s and a kd of 9.84e-05 s⁻¹.
B3 showed a ka of 456000 M/s and a kd of 0.000117 s⁻¹.
B4 was tested, and the ka was 1.37e+06 M/s and the kd was 0.00014 s⁻¹.
